Reference: US10357549B2, “Pigment epithelium-derived factor (PEDF) and peptide derivatives thereof for use in osteoblast differentiation and bone growth” (Yale University, priority 2014, dated 2019)

Legend:
[1] = system: 3T3-L1 adipocyte precursors; experiment: PPARγ expression in 3T3-L1 adipocyte precursors with vector or LRP6 shRNA; format: cell-based, mouse; conditions: PEDF 10 nM, 48 h
Description: (§1) Immunoblotting was performed as described previously (Schmitz et al., 2011, Am J Pathol, 179: 2990-2999). Proteins were separated by 10% SDS-PAGE on gradient gels (Bio-Rad, Hercules, Calif., USA). Antibodies against nonphosphorylated β-catenin, total β-catenin, phospho-LRP6 (serine 1490), total LRP6 (Cell Signaling Technologies, Danvers, Mass., USA), and alkaline phosphatase (Developmental Studies Hybridoma Bank, University of Iowa, Iowa City, Iowa, USA). To assess signaling through the Wnt coreceptor LRP6, 3T3 adipocyte precursors with vector and LRP6-KO shRNA were used (Liu et al., 2012, J Biol Chem, 287: 7213-7223). On confluence, cells were serum starved for 48 h, and then changed to DMEM with 10% FCS (d 0). PEDF (10 nM) was added on d 0, and cells were harvested after 48 h. Knockdown was confirmed by immunoblotting for total LRP6. β-actin (Sigma) was used as a loading control.

SVCs from PEDF KO mice = experiment: Osteoblast differentiation and mineralization of PEDF KO SVCs (Alizarin Red, qRT-PCR); format: cell-based, mouse
Description: (§2) Subcutaneous fat pads were dissected from WT and PEDF-KO mice and digested in HBSS medium containing 3% BSA (American Bioanalytical, Natick, Mass., USA), 0.8 mg/ml of type 2 collagenase (Worthington Biochemical Corp., Lakewood, N.J., USA), 1.2 mM CaCl2, and 1.0 mM MgCl2 for 1 h and 15 min in a shaking 37° C. water bath. Stromovascular fractions (SVFs) were obtained after centrifugation at 300 g for 5 min. Cells were initially plated in proliferation medium (DMEM plus 10% FBS and bFGF; 1 ng/ml) until 70-80% confluence. Adipogenic differentiation was initiated with differentiation medium (5 μg/ml insulin, 10 nM dexamethasone, 0.5 mM IBMX, and 1 μM rosiglitazone) and added on d 0 for 72 h. Afterward, cells were maintained in DMEM with 10% FBS and 5 μg/ml insulin for an additional 5 d until full differentiation as confirmed by light microscopy and Oil Red O staining. Osteoblast differentiation cocktail (10 nM dexamethasone, 50 μg/ml ascorbic acid, and 10 mM β-glycerophosphate) was used for 21 d.
(§3) RNA was isolated and processed using the RNAEasy mini kit (Qiagen, Valencia, Calif., USA). Primer probe sets were obtained from a commercial source (Applied Biosystems, Foster City, Calif., USA), and qRT-PCR was performed on a TaqMan ABI 7500 system (Applied Biosystems) as described previously (Schmitz et al., 2011, Am J Pathol, 179: 2990-2999). Target gene expression was normalized against 18S ribosomal RNA using the ΔΔCt method. On sorted adipose populations, qRT-PCR was performed on a Roche Lightcycler 480 (Roche, Basel, Switzerland) using a SYBR FAST qPCR kit (Kapa Biosystems, Woburn, Mass., USA; KK4611), and target gene expression was normalized to TBK1.
(§4) For Oil Red O staining, cells were washed in PBS and fixed in 10% formalin for 20 min. Cells were then stained with 0.5% Oil Red O for 15 min. For Alizarin Red staining, cells were washed in PBS and fixed in 10% formalin for 20 min. After being washed twice in ddH2O, cells were stained in 2% Alizarin Red S (pH 4.1). Cells were washed ≥3 times in ddH2O, and images were acquired with a Zeiss Axiophot microscope (Carl Zeiss, Oberkochen, Germany). Representative images are shown at ×40 view.

femurs in PEDF KO mice = experiment: Biomechanical testing of femurs of vehicle and PEDF treated PEDF KO mice; format: in vivo, mouse; conditions: versus vehicle
From the text: Further experiments were done to compare the biomechanical properties of PEDF-treated and vehicle-treated bones. […] Femur length was not different between vehicle or PEDF-treated groups. PEDF increased bone stiffness, the slope of the load applied to the bone vs displacement of bone. Maximum load was not different in PEDF-treated mice. The deformation of bone after the yield point, a measure of bone ductility increased after PEDF treatment. Displacement of femurs at maximum load and at fracture (Fx) point increased after PEDF treatment, indicating bones that are less brittle with force applied.

[2] = system: MSCs derived from stromovascular cells (SVCs); experiment: Adipogenic differentiation of murine MSCs derived from stromovascular cells (Oil Red O, qRT-PCR); format: cell-based, mouse
Description: as §2, §3, §4

hMSCs = experiment: Osteoblast differentiation of hMSCs (alkaline phosphatase); format: cell-based, human; conditions: PEDF added to hMSCs
Description: (§5) Adipose-derived hMSCs [American Type Culture Collection (ATCC), Manasses, Va., USA; PCS-500-011) were propagated in MSC basal medium supplemented with MSC growth kit (ATCC). Cells were CD29, CD44, CD105, and CD166 positive and negative for CD 31, CD34, and CD45. Interrogation of Wnt-β-catenin signaling was done in ATCC MSC basal medium with 2% FBS. PEDF (500 ng/ml) was added for 6 h. Passage 2 and 3 hMSCs were used for Wnt signaling experiments. For adipocyte conversion, cells (5000 cells/cm^2) were placed in adipocyte differentiation medium (ATCC; PCS-500-050) for 9-10 d. For osteoblast differentiation, cells (5000 cells/cm^2) were differentiated in osteoblast differentiation medium (ATCC; PCS-500-052) for 10-21 d. Alkaline phosphatase kit (Sigma) was used to stain osteoblasts.
Immunoblotting was performed as described previously (Schmitz et al., 2011, Am J Pathol, 179: 2990-2999). Proteins were separated by 10% SDS-PAGE on gradient gels (Bio-Rad, Hercules, Calif., USA). Antibodies against nonphosphorylated β-catenin, total β-catenin, phospho-LRP6 (serine 1490), total LRP6 (Cell Signaling Technologies, Danvers, Mass., USA), and alkaline phosphatase (Developmental Studies Hybridoma Bank, University of Iowa, Iowa City, Iowa, USA). […]

[3] = system: Wnt cell surface receptor LRP6; experiment: Canonical Wnt-β-catenin signaling in hMSCs (immunoblot of phospho-LRP6 and active β-catenin); format: cell-based, human
Description: The inhibitor of Wnt production (IWP-2; Tocris Bioscience, Minneapolis, Minn., USA; 2 μM×24-48 h) was used to block production of endogenous Wnt proteins (Chen et al., 2009, Nat Chem Biol, 5: 100-107; Clevers et al., 2012, Cell, 149: 1192-1205). All other chemicals, unless indicated, were purchased from Sigma (St. Louis, Mo., USA).
as §5, §1

[4] = osteoblast differentiation, KO SVCs, day 21
[5] = PEDF started on day 3, both WT and KO SVCs
[6] = PEDF 500 ng/ml added to IWP-2-treated hMSCs

B1: Pigment epithelium-derived factor (protein)
chain: QNPASPPEEGSPDPDSTGALVEEEDPFFKVPVNKLAAAVSNFGYDLYRVRSSTSPTTNVLLSPLSVATALSALSLGAEQRTESIIHRALYYDLISSPDIHGTYKELLDTVTAPQKNLKSASRIVFEKKLRIKSSFVAPLEKSYGTRPRVLTGNPRLDLQEINNWVQAQMKGKLARSTKEIPDEISILLLGVAHFKGQWVTKFDSRKTSLEDFYLDEERTVRVPMMSDPKAVLRYGLDSDLSCKIAQLPLTGSMSIIFFLPLKVTQNLTLIEESLTSEFIHDIDRELKTVQAVLTVPKLKLSYEGEVTKSLQEMKLQSLFDSPDFSKITGKPIKLTQVEHRAGFEWNEDGAGTTPSPGLQPAHLTFPLDYHLNQPFIFVLRDTDTGALLFIGKILDPRGP
notes: Full-length recombinant human PEDF generated in HEK cells; 50-kDa secreted protein of the SERPIN superfamily
- PPARγ expression in cells with LRP6 knockdown [1]: induced PPARγ expression
- PPARγ expression in control (vector) cells [1]: significantly inhibited PPARγ expression
- Alizarin Red staining (mineralization) (SVCs from PEDF KO mice; PEDF treatment for 21 days, KO SVCs, versus vehicle-treated cells): increased Alizarin Red staining
- Collagen Ia expression (SVCs from PEDF KO mice; day 21 of differentiation): not different
- Runx2 expression (SVCs from PEDF KO mice; day 21 of differentiation): did not affect
- Sp7 expression (SVCs from PEDF KO mice; day 21 of differentiation): did not affect
- reduction of PPARγ expression (SVCs from PEDF KO mice; [4]): ~80%
- transforming growth factor β (TGF-β) expression (SVCs from PEDF KO mice; [4]): reduced the expression
- bone stiffness (slope of load vs displacement) (femurs in PEDF KO mice): increased
- deformation of bone after the yield point (bone ductility) (femurs in PEDF KO mice): increased
- displacement of femurs at fracture (Fx) point (femurs in PEDF KO mice): increased
- displacement of femurs at maximum load (femurs in PEDF KO mice): increased
- femur length (femurs in PEDF KO mice): not different
- flexibility of femurs (femurs in PEDF KO mice): enhances the flexibility
- maximum load (femurs in PEDF KO mice): not different
- PPARγ suppression, day 1 versus day 3 start ([2]; PEDF 500 ng/ml): greater when PEDF was started on day 1 compared with day 3
- adipogenesis (Oil Red O staining) ([2]; PEDF 500 ng/ml added on day 1 or day 3, assessed day 8): significantly inhibited adipogenesis
- expression of PPARγ, PGC1α, CEBPα and adipocyte marker ADIPOQ ([2]; PEDF 500 ng/ml started on day 1 or day 3): suppression
- inhibition of PGC1α expression [2, 5]: ~50%
- inhibition of PPARγ expression [2, 5]: ~50%
- suppression of PPARγ, adiponectin, and other adipocyte markers ([2]; compared with control-treated cells, P<0.001): ~90%
- alkaline phosphatase by staining and protein levels (hMSCs): increased alkaline phosphatase
- LRP6 phosphorylation in IWP-2-treated cells [3, 6]: led to LRP6 phosphorylation
- active β-catenin in IWP-2-treated cells [3, 6]: enhanced levels of active β-catenin
- LRP6 phosphorylation ([3]; hMSCs, Wnt3a 50 ng/ml, PEDF 500 ng/ml): increased LRP6 phosphorylation
- active β-catenin levels ([3]; medium conditions where endogenous Wnt proteins would be present): only minimal effects
